Test results taken from patent publication US20260250410A1, “ANTIBODY AND USE THEREOF” (SICHUAN HUIYU PHARMACEUTICAL CO., LTD., priority 2022, published 2026).

B1: SB7: anti-CDCP1 antibody by single B cell technique; VH SEQ ID NO: 277, VL SEQ ID NO: 327 (antibody, V domains shown)
VH: QVQLQQSGPELVSPGESVKISCKGSGYTFTDYAVHWVKQSHSKSLEWIGVKSVYYGITKYSQNFKDKATMTVDKSSSTAYMELARLTSEDSAIYYCARDSYGSSRGYFDYWGQGTTLTVSS
VL: DIKMTQSPSSIYVSPGERVTITCKASQDINSFLSWFQQKPGKSPKTLIYRANRLVDGVPSRFSGSGSGQDYSLTISSLEYEDMGIYYCLQYDEFPRTFGGGTKLEIK
modifications: SB7 heavy chain variable region; SB7 light chain variable region
B2: SB8: anti-CDCP1 antibody by single B cell technique; VH SEQ ID NO: 278, VL SEQ ID NO: 328 (antibody, V domains shown)
VH: QVTLKESGPGILKPSQTLSLTCSFSGFSLSTSGVGVGWIRQPSGKGLEWLAHIWWDDEKYYNPSLKSHFTISKDTSRNQVFLKITSVDTADTATYYCVKEGDGMDYWGQGTSVTVSS
VL: QAVVTQESALTTSPGETVTLTCRSSTGAVATSNYANWVQEKPDHLFTGLIGGTNNRVPGVPARFSGSLIGDKAALTITGAQTEDEAIYFCALWYSNHWVFGGGTKLTVL
modifications: SB8 heavy chain variable region; SB8 light chain variable region
B3: SB1: anti-CDCP1 antibody by single B cell technique; VH SEQ ID NO: 271, VL SEQ ID NO: 321 (antibody, V domains shown)
VH: QVQLQQSGPDLVRPGESVKISCKGSGYTFTDHAIHWVRQSHAKSLEWIGVISFSYDNTKYNQNFKGKATMTVDKSSNTAYMELARLTSEDSAIYYCARDCYGSNRGYFDYWGQGTTLTVSS
VL: DIRMTQSPSSMYASLGERVTITCKASQDINRFLSWFLQRPGKAPKTLIYRANNLVEGVPSRFSGSGSGQDYSLIISNLEYEDMGIYYCLQYDEFPRTFGGGTKLEIK
modifications: SB1 heavy chain variable region; SB1 light chain variable region
B4: SB6: anti-CDCP1 antibody by single B cell technique; VH SEQ ID NO: 276, VL SEQ ID NO: 326 (antibody, V domains shown)
VH: QGQMQQSGAELVKPGASVKLSCKTSGFTFNSSYITWLKQKPGQSLEWIAWIFAGTGGTYYNEKFTDKAQLTVDTTSSTAYMQFSSLTTEDSAIYYCARHGLGYDYWGQGTTLTVSS
VL: SIVMTQTPKFLLVSAGDRVTITCKASQSVNTDVAWYQQKSGQSPKLLIYSASNRYTGVPDRFTGSGYGTDFTFTISTVQAEDLAVYFCQQDHSSPPWTFGGGTKLEIK
modifications: SB6 heavy chain variable region; SB6 light chain variable region
B5: SB5: anti-CDCP1 antibody by single B cell technique; VH SEQ ID NO: 275, VL SEQ ID NO: 325 (antibody, V domains shown)
VH: QVQLRESGPGLVAPSQSLSITCTVSGFSLTDFGVNWVRQPPGKGLEWLGIIWANGRIEYNSALKSRLSISKDNSRSQVFLKLNSLQTDDTARYYCARDHDYDVEAMDYWGQGTSVTVSA
VL: QIVLTQSPAIKSASPGEKVTMTCSASSSVIYMHWYQQKSGSSPKRWIYDTSKLASGVPVRFSGSGSGTSYSLTISTMEAEDAATYYCQQWSSYPPTFGGGTKVEIK
modifications: SB5 heavy chain variable region; SB5 light chain variable region

Tests used:
Assay type in all cases: cell-based, human
MDA-MB-231 cells [1] = assay: Endocytosis capacity of single B cell antibodies; conditions: MDA-MB-231, 2 h at 37° C., antibody 1.5 μg/mL
Protocol: The endocytosis capacity of the antibody was detected for 0.5 to 2 hours. MDA-MB-231 cells were subjected to digestion with 5 mM EDTA, and plated at 2×10^4 cells/well after cell counting. After adding an Fc blocker (Human TruStain FcX™, Biolegend, 422302) and blocking at room temperature for 10 mins, a test antibody (1.5 μg/mL) was added, and the mixture was incubated at 4° C. for 30 mins, centrifuged, and washed twice with PBS+2% FBS, then the cells were divided into four equal portions (labeled as 0 h, 0.5 h, 1 h, 2 h), cells labeled as 0.5 h, 1 h, 2 h time points were added to 200 μL of cell culture medium, and cultured at 37° C. for 0.5 h, 1 h, 2 h, respectively. Cells at 0 h point were centrifuged, a secondary antibody (PE anti-human IgG Fc Antibody, Biolegend, 410708) was added, and the mixture was incubated at 4° C. for 30 mins, centrifuged, and washed twice with PBS+2% FBS, and detection was performed using a flow cytometer. After incubation of cells labeled as 0.5 h, 1 h, and 2 h points at 37° C. was completed, a secondary antibody was added (in the same steps as those at 0 h point), Geo-MFI of the signal under the same voltage was collected as detection signal at 0 h, and antibody internalization rate was calculated according to the following equation: Internalization (%)=(Geo-MFI (0 h)-Geo-MFI (2 h))/Geo-MFI (0 h)×100%.

MDA-MB-231 cells [2] = assay: Flow cytometry binding of murine monoclonal antibody to tumor cells; conditions: cells with high expression of CDCP1
Protocol: (§1) Flow cytometry was used to detect the binding capacity of antibody to tumor cells. […] 2.0×10^4 tumor cells were added per well, respectively, and 50 μL (PBS+2% FBS) were added, and after blocking at room temperature with an Fe blocker (Human TruStain FcX™, Biolegend, 422302) for 10 mins, an anti-CDCP1 murine monoclonal antibody at a final concentration of 200 nM was added. The obtained mixture was subjected to a 3-fold serial dilution across 8 concentration points, and incubated at 4° C. for 30 mins, and then incubated with a secondary antibody (PE anti-human IgG Fc Antibody, Biolegend, 410708), detection was performed using a flow cytometer.

PC3 cells = assay: as above; conditions: cells with high expression of CDCP1
Protocol: as §1

Row | Molecule | Internalization MDA-MB-231 (%) (MDA-MB-231 cells [1]) | EC50 (MDA-MB-231 cells [2]) [nM] | EC50 (PC3 cells) [nM]
1 | B1 | 31.67 |  | 
2 | B2 |  | 0.93 | 0.91
3 | B3 | 34.65 |  | 
4 | B4 | 63.21 |  | 
5 | B5 | 15.63 |  | 
